# In article PMC2917047:
# B1: PDE6γ regulatory (inhibitory) subunit of rod cGMP phosphodiesterase 6 (natural protein)
# chain: MNLEPPKAEIRSATRVMGGPVTPRKGPPKFKQRQTRQFKSKPPKKGVQGFGDDIPGMEGLGTDITVICPWEAFNHLELHELAQYGII
# Molecular target: PDE6αβ catalytic dimer of rod cGMP phosphodiesterase 6 (bovine) (UniProt P11541)
# Experiment: SDS-PAGE with Coomassie Blue densitometry of the purified complexes
# PDE6αβ catalytic dimer of rod cGMP phosphodiesterase 6 (bovine), sequence (P11541 whole entry, chain 1 of 2): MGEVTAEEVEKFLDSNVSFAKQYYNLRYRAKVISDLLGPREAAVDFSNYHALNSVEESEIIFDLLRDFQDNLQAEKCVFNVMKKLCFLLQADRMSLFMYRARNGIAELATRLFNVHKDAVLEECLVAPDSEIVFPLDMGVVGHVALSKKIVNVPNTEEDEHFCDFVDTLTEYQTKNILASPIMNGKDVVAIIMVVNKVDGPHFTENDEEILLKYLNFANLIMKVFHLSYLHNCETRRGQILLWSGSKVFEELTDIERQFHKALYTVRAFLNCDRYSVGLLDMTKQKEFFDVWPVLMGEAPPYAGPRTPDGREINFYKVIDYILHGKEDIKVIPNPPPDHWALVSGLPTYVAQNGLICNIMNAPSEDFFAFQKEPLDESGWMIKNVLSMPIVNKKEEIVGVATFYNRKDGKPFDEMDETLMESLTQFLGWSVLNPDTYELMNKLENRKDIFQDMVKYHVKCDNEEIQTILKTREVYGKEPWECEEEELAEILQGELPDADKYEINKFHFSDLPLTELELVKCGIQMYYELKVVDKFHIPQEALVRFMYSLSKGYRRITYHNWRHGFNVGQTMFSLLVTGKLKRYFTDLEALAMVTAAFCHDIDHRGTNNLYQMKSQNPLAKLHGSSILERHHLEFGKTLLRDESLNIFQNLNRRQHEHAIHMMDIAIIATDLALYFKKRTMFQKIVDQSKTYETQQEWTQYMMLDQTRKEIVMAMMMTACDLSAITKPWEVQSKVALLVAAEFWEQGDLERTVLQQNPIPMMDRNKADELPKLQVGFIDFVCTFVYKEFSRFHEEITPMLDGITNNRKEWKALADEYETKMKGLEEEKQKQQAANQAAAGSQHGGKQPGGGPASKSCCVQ
# PDE6αβ catalytic dimer of rod cGMP phosphodiesterase 6 (bovine), sequence (P23439 whole entry, chain 2 of 2, further chain): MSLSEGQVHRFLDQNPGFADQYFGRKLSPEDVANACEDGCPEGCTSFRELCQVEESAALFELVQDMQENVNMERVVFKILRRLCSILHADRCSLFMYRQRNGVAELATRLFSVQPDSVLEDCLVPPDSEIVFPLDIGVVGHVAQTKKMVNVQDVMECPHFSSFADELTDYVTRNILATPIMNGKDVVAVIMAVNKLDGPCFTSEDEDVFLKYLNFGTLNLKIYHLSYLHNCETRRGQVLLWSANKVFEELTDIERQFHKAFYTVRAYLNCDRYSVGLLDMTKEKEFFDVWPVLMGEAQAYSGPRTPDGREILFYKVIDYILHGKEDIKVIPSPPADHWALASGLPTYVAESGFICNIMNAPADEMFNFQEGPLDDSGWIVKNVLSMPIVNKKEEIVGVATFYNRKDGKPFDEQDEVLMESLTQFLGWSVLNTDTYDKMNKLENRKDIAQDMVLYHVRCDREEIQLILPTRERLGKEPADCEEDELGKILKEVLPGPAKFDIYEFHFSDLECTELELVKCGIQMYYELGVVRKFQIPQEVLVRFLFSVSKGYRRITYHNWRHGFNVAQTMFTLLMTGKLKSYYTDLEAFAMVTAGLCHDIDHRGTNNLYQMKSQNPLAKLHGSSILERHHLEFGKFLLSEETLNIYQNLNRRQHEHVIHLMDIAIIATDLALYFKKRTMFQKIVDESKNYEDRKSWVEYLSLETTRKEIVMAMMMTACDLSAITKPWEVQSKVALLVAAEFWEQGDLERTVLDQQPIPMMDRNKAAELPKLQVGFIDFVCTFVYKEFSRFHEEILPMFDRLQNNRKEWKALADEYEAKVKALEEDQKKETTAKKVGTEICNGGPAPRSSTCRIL
binder,measurement,value
B1,stoichiometry N,2
